Test results taken from publication PMC4817975 (PLoS ONE, 2016).
Read-outs that look alike come from different tables or passages of the source.

Key:
[1] = target: T1, Human kappa opioid receptor (KOR) (Homo sapiens, UniProt P41145); test: Time-resolved SPA stability assay of high-affinity [3H]-DPN binding; conditions: for τ1, exponential time constant: exponential decay fit; for N1, initial active receptor population: exponential decay fit (single for DDM, double for Nanodiscs)
T1 construct: made in house; host or cells: Pichia pastoris
Experimental: All procedures were performed on ice or at 4°C until assay counting was initiated at room temperature (23°C). Time-resolved stability assay with detergent-extracted MPs was carried out directly after solubilization in binding buffer I (20 mM Tris-HCl, pH 7.4, 500 mM NaCl, 5% glycerol, 1 mM PMSF, 0.1 mM TCEP, 0.4% BSA). Solubilized proteins were diluted in the assay resulting in a final concentration of 0.1% DDM in the assay buffer. Stability assays performed with KOR reconstituted in Nanodiscs were done in binding buffer II (20 mM Tris-HCl pH 7.4, 100 mM NaCl pH 7.4, 0.4% BSA). KOR/Nanodisc samples were added at quantities corresponding to approximately 30 fmol/well. Samples were mixed with 0.5 mg/well yttrium silicate (YSi) streptavidin coated SPA beads (Perkin Elmer) in binding buffer and a final concentrations of 10 nM [^3H]-DPN (42.3 Ci/mmol, Perkin Elmer) in a total volume of 200 μl. In parallel, the non-specific binding was measured including 50 μM naloxone in the assay. All measurements were performed in triplicates in a white-wall clear-bottom 96-well plate (Wallac). The assay was gently shaken on a vibrating platform at 4°C for 1.5 hours to equilibrate ligand binding and immobilization of receptors on the SPA beads. After incubation the assay was counted with a liquid scintillation counter (Wallac Microbeta TriLux 1450, SPA cpm mode) repeatedly with 17 min between measurements at room temperature. As a control, the same assay conditions as described above were performed at RT and bound and free radioligands were separated at specific time points on Sephadex G-50 gravity-flow columns (GE Healthcare) equilibrated in binding buffer. After applying 50 μl of samples, columns were centrifuged for 2 min at 1000 x g. Separated samples were mixed with scintillation liquid and incubated for 1 hour at RT, before counting on a liquid scintillation counter. As data analysis, specific binding was normalized to the initial binding at time zero, corresponding to initiation of assay counting at RT. The half-life of high-affinity ligand binding was calculated from fitting to single or double exponential decay functions in Igor Pro 6.1.

[2] = target: T2, Human kappa opioid receptor (KOR) reconstituted in Nanodiscs (Homo sapiens, UniProt P41145); conditions: SPA saturation binding, one-site model
T2 construct: made in house; host or cells: Pichia pastoris (KOR)
Experimental: In parallel non-specific binding was measured in the presence of 50 μM naloxone. […] Therefore, saturation and inhibition binding assays were performed with reduced SPA beads/well; 0.25 mg/well of streptavidin-coated SPA YSI beads. […] Ki was measured from the IC50 value.

[3] = target: T1, Human kappa opioid receptor (KOR); test: Radioligand filter binding assay (saturation), KOR in P. pastoris membranes; conditions: one-site model, read-out: KD, P.Pastoris membrane
Experimental: Specific ligand binding to KOR in P. pastoris membranes was measured by radioligand filter binding assay. Isolated P. pastoris membranes were diluted in binding buffer (50 mM Tris-HCl pH 7.4, 0.5 M NaCl, 1mg/ml BSA) and mixed in triplicates with radioligand [^3H]-diprenorpine (DPN, 42.3 Ci/mmol, Perkin Elmer) in concentrations varying from 0.08 to 10 nM in a 96 well plate (MultiScreen HTS-FC 1.2/0.65 μm glass fiber filter), which was pre-wetted in washing buffer (50 mM Tris-HCl buffer, pH 7.4). Non-specific binding was measured in parallel by including 50 μM naloxone. For each binding experiment, membranes corresponding to 3–5 μg/well were used keeping the ratio of bound radioligand <10% of the total added radioligand. The assay mixture was incubated for 2 h at room temperature. To separate bound from free ligands, the plate was rapidly filtrated and washed four times with 100 μl ice-cold washing buffer. Scintillation liquid (Ultima Gold XR, Perkin Elmer) was added to the wells and the assay was counted by a liquid scintillation counter (Wallac Microbeta TriLux 1450). Specific binding was calculated and KD was measured from saturation curves fitted to a one-site binding model using Igor Pro 6.1.

[4] = target: KOR; parameters: method as in PMID 22437504, PMID 15956349; conditions: literature value; cited from earlier work
[5] = 10 nM [3H]-DPN, 23°C, double exponential fit

T1 sequence (P41145 whole entry): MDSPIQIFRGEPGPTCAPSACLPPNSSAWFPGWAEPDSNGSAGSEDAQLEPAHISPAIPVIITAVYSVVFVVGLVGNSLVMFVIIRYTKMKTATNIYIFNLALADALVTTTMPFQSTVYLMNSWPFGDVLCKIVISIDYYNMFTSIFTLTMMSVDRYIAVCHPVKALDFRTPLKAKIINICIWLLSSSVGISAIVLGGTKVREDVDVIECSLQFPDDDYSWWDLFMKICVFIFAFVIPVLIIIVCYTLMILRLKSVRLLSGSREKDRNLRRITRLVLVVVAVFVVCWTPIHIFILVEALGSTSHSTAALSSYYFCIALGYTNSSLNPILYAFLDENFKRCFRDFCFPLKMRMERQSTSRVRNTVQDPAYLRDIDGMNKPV
T2 sequence (P41145 whole entry): as above

| Substance | τ1, exponential time constant ([1]; 10 nM [3H]-DPN, 23°C) [h] | N1, initial active receptor population ([1]; 10 nM [3H]-DPN, 23°C) [%] | time to complete loss of ligand binding activity ([1]; room temperature (23°C), 10 nM [3H]-DPN) [min] | N2, initial active receptor population (slow component) [1, 5] [%] | τ2, exponential time constant [1, 5] [h] | N2, initial active receptor population (slow component) ([1]; 10 nM [3H]-DPN, 23°C, double exponential fit, listed as KOR reconstituted in Nanodiscs) [%] | ligand binding relative to the initial activity after 100 minutes ([1]; after counting for 100 minutes at room temperature, n = 5) [%] | stability improvement (Taverage in Nanodiscs vs half-life in DDM micelles) ([1]; from fitted curves) | Kd [2] [nM] | Kd ([2]; listed as [^3H]-DPN) [nM] | Kd ([3]; listed as [^3H]-DPN) [nM] | Kd [3] [nM] | Kd [4] [nM] |
| --- | --- | --- | --- | --- | --- | --- | --- | --- | --- | --- | --- | --- | --- |
| KOR in DDM micelles: human kappa opioid receptor solubilized in DDM/CHS, 0.1%/0.02% in the assay | 0.4 ± 0.01 | 97.4 ± 1.5 | ≤ 100 |  |  |  |  |  |  |  |  |  |  |
| KOR in Nanodiscs: human kappa opioid receptor reconstituted in MSP1E3D1 Nanodiscs with POPC:POPG 3:2 | 1.2 ± 0.1 | 29.4 ± 0.8 |  | 68.9 ± 0.7 | 36.8 ± 1.6 | 68.9 | 73.5 ± 2.5 | approximately 70 fold |  |  |  |  |  |
| diprenorpine [[3H]-DPN] |  |  |  |  |  |  |  |  | 0.8 ± 0.2 | 0.84 ± 0.15 | 0.94 ± 0.14 | 0.9 ± 0.1 | 0.8 |
